Source: article PMC3643586 (Nucleic Acids Research, 2013)
Where “and” joins values, the source holds several entries; their conditions need not be identical. Equal entries are not always repeated. Where two headings read alike, the source gives them in different places.

B1: Bacillus subtilis clamp-loader τ subunit (natural protein, UniProt P09122 1-563, looked up)
chain: MSYQALYRVFRPQRFEDVVGQEHITKTLQNALLQKKFSHAYLFSGPRGTGKTSAAKIFAKAVNCEHAPVDEPCNECAACKGITNGSISDVIEIDAASNNGVDEIRDIRDKVKFAPSAVTYKVYIIDEVHMLSIGAFNALLKTLEEPPEHCIFILATTEPHKIPLTIISRCQRFDFKRITSQAIVGRMNKIVDAEQLQVEEGSLEIIASAADGGMRDALSLLDQAISFSGDILKVEDALLITGAVSQLYIGKLAKSLHDKNVSDALETLNELLQQGKDPAKLIEDMIFYFRDMLLYKTAPGLEGVLEKVKVDETFRELSEQIPAQALYEMIDILNKSHQEMKWTNHPRIFFEVAVVKICQTSHQSAADLPEVDMLMKKIQQLEQEVERLKTTGIKAAAESPKKEAPRVPKGGKSNYKAPVGRIHEILKEATRPDLDLLRNSWGKLLAHLKQQNKVSHAALLNDSEPVAAGSAAFVLKFKYEIHCKMVAEDNNGVRTNLEQILESMLGKRMDLIGVPEAQWGKIREEFLEDHQQENEGSNEPAEEDPLIAEAKKLVGADLIEIKD

Tests used:
Assay in all cases: native MS
[1] = target: Bacillus subtilis clamp-loader δ subunit (yqeN) (Bacillus subtilis) (UniProt P54459)
[2] = target: the molecule itself
[3] = target: T1, Bacillus stearothermophilus DnaB helicase (Bacillus stearothermophilus, UniProt Q9X4C9 1-454)
T1 sequence (looked up): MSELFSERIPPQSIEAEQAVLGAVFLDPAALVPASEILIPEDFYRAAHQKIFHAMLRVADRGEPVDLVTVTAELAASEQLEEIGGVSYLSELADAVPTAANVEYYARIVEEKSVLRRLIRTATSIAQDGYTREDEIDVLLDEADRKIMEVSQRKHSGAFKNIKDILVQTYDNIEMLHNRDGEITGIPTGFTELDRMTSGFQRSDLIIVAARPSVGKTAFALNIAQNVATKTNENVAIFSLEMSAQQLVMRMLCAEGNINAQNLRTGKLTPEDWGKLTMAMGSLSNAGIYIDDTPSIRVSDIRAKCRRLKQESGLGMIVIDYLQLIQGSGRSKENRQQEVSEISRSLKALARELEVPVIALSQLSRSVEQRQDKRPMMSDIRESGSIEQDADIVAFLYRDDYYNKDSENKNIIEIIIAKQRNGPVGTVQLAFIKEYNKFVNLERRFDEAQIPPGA

[4] = target: the molecule itself; remark: listed apart in the source
[5] = target: the molecule itself; remark: listed apart in the source
[6] = target: B1
[7] = target: B1; remark: listed apart in the source
[8] = target: B1; remark: listed apart in the source

Bacillus subtilis clamp-loader δ subunit (yqeN) (from UniProt P54459 1-347) (natural protein)
stoichiometry N (subunits in the oligomer) [1]: 2

B1
stoichiometry N [2]: 4 subunits in the oligomer | stoichiometry N [3]: 3 τ per DnaB hexamer | stoichiometry N [4]: 3 subunits in the oligomer and 2 subunits in the oligomer and 5 subunits in the oligomer

B2: Bacillus subtilis clamp-loader δ′ subunit (holB) (natural protein, UniProt P37540 1-329, looked up)
chain: MAISWKEMNELQPRVMKLLYNSIEKDRLSHAYLFEGKKGTGKLDAALLLAKSFFCLEGGAEPCESCRNCKRIESGNHPDLHLVQPDGLSIKKAQIQALQEEFSKTGLESHKKLYIISHADQMTANAANSLLKFLEEPNKDTMAVLITEQPQRLLDTIISRCQTLPFQPLQPKAIEDRLIEQDVSPHMARLLANMTNNVAEAVELSRNDEFAESRAKVIKLYEVLHQRKGHAFFFIQDQWMPFFKEKTHQEMGLDMLLLIYRDVLSIQIGNEDKLIYQDLFQSIKQHALQSTQQSVTNQILAVLEAKKRLHSNVNVQGLMEHLVLMLQEG
stoichiometry N [5]: 2 subunits in the oligomer | stoichiometry N [6]: 3 τ per δ′ and 2 τ per δ′

B3: Bacillus subtilis clamp-loader δ subunit (yqeN) (natural protein, UniProt P54459 1-347, looked up)
chain: MVFDVWKSLKKGEVHPVYCLYGKETYLLQETVSRIRQTVVDQETKDFNLSVFDLEEDPLDQAIADAETFPFMGERRLVIVKNPYFLTGEKKKEKIEHNVSALESYIQSPAPYTVFVLLAPYEKLDERKKLTKALKKHAFMMEAKELNAKETTDFTVNLAKTEQKTIGTEAAEHLVLLVNGHLSSIFQEIQKLCTFIGDREEITLDDVKMLVARSLEQNIFELINKIVNRKRTESLQIFYDLLKQNEEPIKIMALISNQFRLILQTKYFAEQGYGQKQIASNLKVHPFRVKLAMDQARLFSEEELRLIIEQLAVMDYEMKTGKKDKQLLLELFLLQLLKRNEKNDPHY
stoichiometry N [7]: 3 τ per δ | stoichiometry N [8]: 2 τ per δ
